“Also recorded” adds a separate entry of the source.
B1: ˜55 kilodalton (kDa) laminin fragment: ˜55 kDa Aβ-binding fragment from V8 or elastase digested mouse EHS laminin; within globular repeats of the laminin A chain (E3 region) (protein)
chain: HREHGELPPEPPTLPQPELCAVDTAPGYVAGAHQFGLSQNSHLVLPLNQSDVRKRLQVQLSIRTFASSGLIYYVAHQNQMDYATLQLQEGRLHFMFDLGKGRTKVSHPALLSDGKWHTVKTEYIKRKAFMTVDGQESPSVTVVGNATTLDVERKLYLGGLPSHYRARNIGTITHSIPACIGEIMVNGQQLDKDRPLSASAVDRCYVVAQEGTFFEGSGYAALVKEGYKVRLDLNITLEFRTTSKNGVLLGISSAKVDAIGLEIVDGKVLFHVNNGAGRITATYQPRAARALCDGKWHTLQAHKSKHRIVLTVDGNSVRAESPHTHSTSADTNDPIYVGGYPAHIKQNCLSSRASFRGCVRNLRLSRGSQVQSLDLSRAFDLQGVFPHSCPGPEP

How the values were obtained:
[1] = target: T1, Aβ (1-40) (Homo sapiens, UniProt P05067); assay: Thioflavin T fluorometry, Aβ (1-40) amyloid fibril formation; type: biochemical; conditions: comparison of basement membrane components (FIG. 3), 25 μM Aβ (1-40), 100 nM, 1 hour to 1 week
T1 construct: 2 μg of Aβ (1-40)(Bachem Inc., Torrance, Calif. USA; Lot #WM365); purchased Bachem Inc., Torrance, Calif; Lot #WM365
Protocol: The effects of laminin on Aβ fibrillogenesis was also determined using the previously described method of Thioflavin T fluorometry (Naiki et al, Lab. Invest. 65:104-110, 1991; Levine III, Protein Sci. 2:404-410, 1993; Levine III, Int. J. Exp. Clin. Invest. 2:1-6, 1995; Naiki and Nakakuki, Lab. Invest. 74:374-383, 1996). In this assay, Thioflavin T binds specifically to fibrillar amyloid and this binding produces a fluorescence enhancement at 480 nm that is directly proportional to the amount of amyloid fibrils formed (Naiki et al, Lab. Invest. 65:104-110, 1991; Levine III, Protein Sci. 2:404-410, 1993; Levine III, Int. J. Exp. Clin. Invest. 2:1-6, 1995; Naiki and Nakakuki, Lab. Invest. 74:374-383, 1996). In a first study, the effects of EHS laminin on Aβ (1-40) fibrillogenesis was assessed. For this study, 25 μM of freshly solubilized Aβ (1-40)(Bachem Inc., Torrance, Calif., USA; Lot #WM365) was incubated in microcentrifuge tubes at 37° C. for 1 week (in triplicate), either alone, or in the presence of 100 nM EHS laminin (Sigma Chemical Company, St. Louis, Mo., USA) in 100 mM Tris, 50 mM NaCl, pH 7.0 (TBS). 100 nM of laminin utilized for these studies represented a Aβ:laminin molar ratio of 250:1. 50 μl aliquots were then taken from each tube for analysis at 1 hr, 1 day, 3 days, and 1 week. In a second set of studies, the effects of laminin on Aβ (1 -40) fibril formation was directly compared to other basement membrane components including fibronectin, type IV collagen and perlecan. For these studies, 25 μM of freshly solubilized Aβ (1-40) was incubated in microcentrifuge tubes for 1 week (in triplicate) either alone, or in the presence of 100 nM of EHS perlecan (isolated as previously described)(Castillo et al, J. Biochem. 120:433-444, 1996), fibronectin (Sigma Chemical Company, St. Louis, Mo., USA) or type IV collagen (Sigma Chemical Company, St. Louis, Mo., USA). 50 ul aliquots were then taken for analysis at 1 hour, 1 day, 3 days and 1 week. In a third set of studies, 25 μM of freshly solubilized Aβ (1-40) was incubated in microcentrifuge tubes for 1 week (in triplicate) either alone, or in the presence of increasing concentrations of laminin (i.e. 5 nM, 15 nM, 40 nM and 100 nM). 50 μl aliquots were taken for analysis at 1 hour, 1 day, 3 days and 1 week.
For each determination described above, following each incubation period, Aβ peptides +/− laminin, perlecan, fibronectin or type IV collagen, were added to 1.2 ml of 100 μM Thioflavin T (Sigma Chemical Co., St. Louis, Mo.) in 50 mM phosphate buffer (pH 6.0). Fluorescence emission at 480 nm was measured on a Turner instrument-model 450 fluorometer at an excitation wavelength of 450 nm. For each determination, the fluorometer was calibrated by zeroing in the presence of the Thioflavin T reagent alone, and by seting the 50 ng/ml riboflavin (Sigma Chemical Co., St. Louis, Mo.) in the Thioflavin T reagent to 1800 fluorescence units. All fluorescence determinations were based on these references and any background fluorescence given off by laminin, perlecan, type IV collagen, or fibronectin alone in the presence of the Thioflavin T reagent was always subtracted from all pertinent readings.

[2] = target: T2, biotinylated Aβ (1-40) (Homo sapiens, UniProt P05067); assay: Aβ ligand blot of undigested and V8-, trypsin- or elastase-digested EHS laminin; type: binding; conditions: 2 μM biotinylated Aβ (1-40), SDS-PAGE under non-reducing conditions
T2 construct: Aβ (1-40) was biotinylated according to the manufacturer's protocol (Pierce, Rockford, Ill.)
Protocol: For these experiments, Aβ (1-40) was biotinylated according to the manufacturer's protocol (Pierce, Rockford, Ill.). For the ligand studies, intact EHS laminin was left undigested, or digested with V8 or trypsin (Sigma Chemical Company, St. Louis, Mo., USA). More specifically, 2 μg of trypsin or V8 protease in 2 μl of 50 MM Tris-HCl buffer (pH 8.0) were added to 50 μl of laminin (50 μg)(in the same buffer) and incubated overnight at 37° C. The next day, 10 μl of protease-digested laminin (or undigested laminin) was mixed with 10 μl of 2× sodium dodecyl sulfate polyacrylamide gel electrophoresis (SDS-PAGE) sample buffer, and heated for 5 minutes in a boiling water bath. SDS-PAGE was performed according to the method of Laemmli (Laemmli, U.K. Nature 227:680-685, 1970), or according to the method of Schägger and Jagow (Schägger and Jagow, Anal. Biochem. 166:368-379, 1987) using a Mini-Protean II electrophoresis system (Biorad) with precast 4-15% Tris-Glycine or 10-20% tricine polyacrylamide gels, respectively, and under non-reducing conditions. Electrophoresis occurred at 200V for 45 minutes along with pre-stained molecular weight standards. After SDS-PAGE (10-20% tricine or 4-15% Tris-Glycine gels) was performed as described above, the separated laminin and its fragments (total protein of 10 μg/lane) were transferred to polyvinylidine difluoride membrane (PVDF) using a Mini transblot electrophoresis transfer cell (Biorad, Hercules, Calif., U.S.A.). Electrotransfer was performed at 100V for 2 hours. Following transfer, membranes were rinsed with methanol and dried. The fragment(s) of laminin involved in binding to Aβ were then detected by using biotinylated-Aβ (1-40), as described above. Blots were probed for 2 hours with 2 μM biotinylated Aβ (1-40) in TTBS. The membranes were then rinsed three times (10 seconds each) with TTBS, probed for 30 minutes with strepavidin alkaline phosphatase conjugate (Vectastain), rinsed again (as described above), and followed by the addition of an alkaline phosphatase substrate solution (Vectastain). Following color development, the reaction was stopped by flushing the membranes with double distilled water. In the next set of studies, we determined whether small fragment(s) of laminin generated by elastase digestion would bind to Aβ. […] For these experiments, Aβ (1-40) was biotinylated according to the manufacturer's protocol (Pierce, Rockford, Ill.). For the ligand studies, intact EHS laminin was left undigested, or digested with elastase (Sigma Chemical Company, St. Louis, Mo., USA). For elastase digestion, 2 μg of elastase in 8 μl of 50 mM Tris-HCl buffer (pH 8.0) was added to 50 μl of laminin (50 μg)(in the same buffer) and incubated for 1.5 hours or 2.5 hours at 37° C. In addition, as a control, 2 μg of elastase in 50 μl of 50 mM Tris-HCl buffer (pH 8.0) was incubated for 2.5 hours at 37° C. Following the appropriate incubation times as described above, 10 μl of each of the above incubations were mixed with 10 μl of 2× SDS-PAGE electrophoresis sample buffer, and heated for 5 minutes in a boiling water bath. SDS-PAGE was performed according to the method of Laemmli (Laemmli, Nature 227:680-685, 1970) using a Mini-Protean II electrophoresis system with precast 4-15% Tris-Glycine polyacrylamide gels, and under non-reducing conditions. Electrophoresis occurred at 200V for 45 minutes along with pre-stained molecular weight standards (Biorad). After SDS-PAGE was performed as described above, the separated laminin fragments were transferred to PVDF using a Mini transblot electrophoresis transfer cell (Millipore, Bedford, Mass., U.S.A.). Electrotransfer was performed at 100V for 2 hours. Following transfer, membranes were rinsed with methanol, dried and cut into two equal parts which were used for Aβ ligand blotting, or Coomassie blue staining and subsequent amino acid sequencing. The fragment(s) of laminin involved in binding to Aβ were then detected by using biotinylated-Aβ (1-40), as described above. […]

T2 sequence (P05067 672-711 limits assumed): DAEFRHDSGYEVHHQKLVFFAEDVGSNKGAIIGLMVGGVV
T1 sequence (P05067 672-711 limits assumed): as above

Molecule | effect on Aβ (1-40) fibrillogenesis, in words [1] | effect on Aβ (1-40) fibrillogenesis, in words ([1]; listed as Perlecan) | interaction with biotinylated Aβ (1-40) on ligand blot, in words [2] | interaction with biotinylated Aβ (1-40) on ligand blot, in words ([2]; listed as 55 kDa laminin fragment) | interaction with biotinylated Aβ (1-40) on ligand blot, in words ([2]; listed as ˜55 kDa) | interaction with biotinylated Aβ (1-40) on ligand blot, in words ([2]; listed as ˜55 kilodalton fragment) | interaction with biotinylated Aβ (1-40) on ligand blot, in words ([2]; listed as ˜55 kilodalton laminin fragment)
fibronectin [reference compound] | not effective inhibitors; also recorded: only showed significant inhibition of Aβ (1-40) fibrillogenesis at 1 week |  |  |  |  |  | 
perlecan: EHS perlecan, basement membrane component used as comparison [reference compound] | not effective inhibitors | significantly accelerate Aβ (1-40) amyloid formation at 1 day and 3 days |  |  |  |  | 
B1 |  |  | interact with biotinylated Aβ (1-40) | positive Aβ binding interaction | interacted with Aβ (1-40) | interacts with Aβ | binds biotinylated Aβ
